Test results from US20050245453A1 (MOUNT SINAI SCHOOL OF MEDICINE OF NEW YORK UNIVERSITY, published 2005).

Target: Presenilin-1 (PS1) (human, UniProt P49768 1-467)
Test: co-immunoprecipitation with anti-PS1/NTF R222 from transfected A431D cell extracts, Western blot with C36
Experimental: Immunoprecipitations (IPs), immunoblotting, immunofluorescence and confocal microscopy. For WB analysis of cell extracts, cells were washed with PBS and then solubilized in RIPA buffer. For IPs cells were solubilized in Hepes buffer (25 mM Hepes [pH 7.4], 150 mM NaCl, 1× Complete protease inhibitor cocktail, Roche) containing 1% digitonin (IPs with I-R222 and PI-R222 antibodies) or 1% Triton X-100 (IPs with β-catenin and desmoglein antibodies). Following centrifugation at 17,000×g for 10 min, supernatants (1 mg protein) were pre-cleared with protein A- or protein G-agarose (Pierce) for 2 hours. Supernatants were then incubated with antibodies overnight at 4° C. and treated for 2 hours with protein A-agarose (polyclonal antibodies) or with protein G-agarose (monoclonal antibodies). IPs were washed with Hepes buffer containing either 1% digitonin or 1% Triton X-100 and analyzed by SDS-PAGE. Immunofluorescence and confocal microscopy was performed as described by Georgakopoulos et al., (1999). Briefly, cells were plated on 22×22 mm collagen-coated glass coverslips, fixed in cold methanol for 10 min at −20° C. […]

B1: E-cadherin mutant GGG759-761AAA (receptor)
chain: DWVIPPISCPENEKGPFPKNLVQIKSNKDKEGKVFYSITGQGADTPPVGVFIIERETGWLKVTEPLDRERIATYTLFSHAVSSNGNAVEDPMEILITVTDQNDNKPEFTQEVFKGSVMEGALPGTSVMEVTATDADDDVNTYNAAIAYTILSQDPELPDKNMFTINRNTGVISVVTTGLDRESFPTYTLVVQAADLQGEGLSTTATAVITVTDTNDNPPIFNPTTYKGQVPENEANVVITTLKVTDADAPNTPAWEAVYTILNDDGGQFVVTTNPVNNDGILKTAKGLDFEAKQQYILHVAVTNVVPFEVSLTTSTATVTVDVLDVNEAPIFVPPEKRVEVSEDFGVGQEITSYTAQEPDTFMEQKITYRIWRDTANWLEINPDTGAISTRAELDREDFEHVKNSTYTALIIATDNGSPVATGTGTLLLILSDVNDNAPIPEPRTIFFCERNPKPQVINIIDADLPPNTSPFTAELTHGASANWTIQYNDPTQESIILKPKMALEVGDYKINLKLMDNQNKDQVTTLEVSVCDCEGAAGVCRKAQPVEAGLQIPAILGILGGILALLILILLLLLFLRRRAVVKEPLLPPEDDTRDNVYYYDEEAAAEEDQDFDLSQLHRGLDARPEVTRNDVAPTLMSVPRYLPRPANPDEIGNFIDENLKAADTDPTAPPYDSLLVFDYEGSGSEAASLSSLNSSESDKDQDYDYLNEWGNRFKKLADMYGGGEDD
notes: whole, on cells; Numbering on the unprocessed human E-cadherin precursor; Assayed in cell extracts by co-immunoprecipitation; also called mutant E-cadherin
  binding result: no binding
